The chains are these.
B1: TRPA1 ARD construct (N-terminal ankyrin repeat domains, amino acids 446-639) (domain or fragment, human, UniProt O75762 446-639, looked up)
chain: KKSPLHFAASYGRINTCQRLLQDISDTRLLNEGDLHGMTPLHLAAKNGHDKVVQLLLKKGALFLSDHNGWTALHHASMGGYTQTMKVILDTNLKCTDRLDEDGNTALHFAAREGHAKAVALLLSHNADIVLNKQQASFLHLALHNKRKEVVLTIIRSKRWDECLKIFSHNSPGNKCPITEMIEYLPECMKVLLD
notes: human TRPA1 ankyrin repeat domains with resolvable density in the cryoEM structure, amino acids 446-639; Cloned into pET28b (Nhe I and Sac I) in frame with an N-terminal poly-histidine tag; also called ARDs; N-terminal ARD; source: E. coli BL21(DE3), co-expressed with MBPCC1, in cleared lysate; not shown: poly-histidine, N-terminal, kept
B2: MBPCC1: maltose-binding protein fusion of the human TRPA1 C-terminal coiled-coil CC1 (amino acids A1036-T1078) (domain or fragment, UniProt O75762 1036-1078, looked up)
chain: ADKSLEMEILKQKYRLKDLTFLLEKQHELIKLIIQKMEIISET
notes: human TRPA1 C-terminal coiled-coil CC1, amino acids A1036-T1078; source: E. coli BL21(DE3), purified (amylose resin, SEC); also co-expressed with ARD in BL21(DE3), in cleared lysate; not shown: poly-histidine, N-terminal, kept; MBP, N-terminal, kept

Data set [1] deals with B2. The experiment in a line: pull-down; amylose resin co-purification from cleared lysate of bacteria co-expressing ARD and MBPCC1; incubation and 4 washes at 4 C, Buffer A1T, with or without IP6 and/or AITC; anti-His Western blot. Conditions: partners not purified.
Data set [2] concerns the molecule itself. The experiment in a line: SEC-MALS; MBPCC1 at 15 mg/ml (~300 uM), absence of IP6, Superdex 200 column.
Data set [3] concerns the molecule itself. The experiment in a line: SEC-MALS; MBPCC1 diluted to 1 mg/ul (~20 uM) as printed, absence of IP6, Superdex 200 column. A general note: In gel filtration, larger molecules generally elute earlier.

One may read the stoichiometry N as a count of units in the complex or per binding partner.

For the molecule B1, the “ARD:CC ratio” value in data set [1] is around 0.3. Take B2: the “stoichiometry N” value in data set [2] came out at 4; in data set [3], 3.
